# Experimental data taken from patent US20110263454A1, “Methods of Identifying Functional Characteristics of Promoters, Transcription Modifying Proteins and Transcription Modulating Agents” (Salk Institute for Biological Studies, priority 2008, published 2011).
# B1: SHP: Small Heterodimer Partner (NR0B2), cDNA driver (protein, UniProt Q15466 1-257, looked up)
# Nuclear receptor subfamily 0 …: MSTSQPGACPCQGAASRPAILYALLSSSLKAVPRPRSRCLCRQHRPVQLCAPHRTCREALDVLAKTVAFLRNLPSFWQLPPQDQRRLLQGCWGPLFLLGLAQDAVTFEVAEAPVPSILKKILLEEPSSSGGSGQLPDRPQPSLAAVQWLQCCLESFWSLELSPKEYACLKGTILFNPDVPGLQAASHIGHLQQEAHWVLCEVLEPWCPAAQGRLTRVLLTASTLKSIPTSLLGDLFFRPIIGDVDIAGLLGDMLLLR
# B2: GCNF: Germ Cell Nuclear Factor (NR6A1, GCNF1), cDNA driver (protein, UniProt Q15406 1-480, looked up)
# Nuclear receptor subfamily 6 …: MERDEPPPSGGGGGGGSAGFLEPPAALPPPPRNGFCQDELAELDPGTISVSDDRAEQRTCLICGDRATGLHYGIISCEGCKGFFKRSICNKRVYRCSRDKNCVMSRKQRNRCQYCRLLKCLQMGMNRKAIREDGMPGGRNKSIGPVQISEEEIERIMSGQEFEEEANHWSNHGDSDHSSPGNRASESNQPSPGSTLSSSRSVELNGFMAFREQYMGMSVPPHYQYIPHLFSYSGHSPLLPQQARSLDPQSYSLIHQLLSAEDLEPLGTPMLIEDGYAVTQAELFALLCRLADELLFRQIAWIKKLPFFCELSIKDYTCLLSSTWQELILLSSLTVYSKQIFGELADVTAKYSPSDEELHRFSDEGMEVIERLIYLYHKFHQLKVSNEEYACMKAINFLNQDIRGLTSASQLEQLNKRYWYICQDFTEYKYTHQPNRFPDLMMCLPEIRYIAGKMVNVPLEQLPLLFKVVLHSCKTSVGKE
# B3: DAX-1: DAX1 (NR0B1), cDNA driver (protein, UniProt P51843 1-470, looked up)
# Nuclear receptor subfamily 0 …: MAGENHQWQGSILYNMLMSAKQTRAAPEAPETRLVDQCWGCSCGDEPGVGREGLLGGRNVALLYRCCFCGKDHPRQGSILYSMLTSAKQTYAAPKAPEATLGPCWGCSCGSDPGVGRAGLPGGRPVALLYRCCFCGEDHPRQGSILYSLLTSSKQTHVAPAAPEARPGGAWWDRSYFAQRPGGKEALPGGRATALLYRCCFCGEDHPQQGSTLYCVPTSTNQAQAAPEERPRAPWWDTSSGALRPVALKSPQVVCEAASAGLLKTLRFVKYLPCFQVLPLDQQLVLVRNCWASLLMLELAQDRLQFETVEVSEPSMLQKILTTRRRETGGNEPLPVPTLQHHLAPPAEARKVPSASQVQAIKCFLSKCWSLNISTKEYAYLKGTVLFNPDVPGLQCVKYIQGLQWGTQQILSEHTRMTHQGPHDRFIELNSTLFLLRFINANVIAELFFRPIIGTVSMDDMMLEMLCTKI
# Test system: hPPARg1 promoter
# Test: NHR-promoter luciferase screen, hPPARg1 promoter
# Assay type: cell-based, human
# Conditions: PPARG1 promoter; hormone receptor with or without its ligand
# How it was run: (§1)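 CV-1 cells were co-transfected with 50 ng NHR (homodimer or NHR/RXR heterodimer), 100 ng promoter-luciferase construct and 50 ng LacZ. Luciferase was normalized to LacZ and to a no-NHR/no-ligand control.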
row,Molecule,"Luc. act., normalized to lacZ"
1,B1,67.9
2,B2,88.6
3,B3,67.5

# Same assay, conditions: PPARG1 promoter; hormone receptor with or without its ligand; relative to control
row,Molecule,"Normalized Luc. act., normalized to control"
1,B1,1.0
2,B2,1.3
3,B3,1.0

# Same assay, conditions: Table 6d; luciferase activity relative to control (control = 1.00)
row,Molecule,Results of assays of transcription factor (+/- ligand) with hPPARg1
1,B1,0.99
2,B2,1.29
3,B3,0.98

# Test system: mLeptin promoter
# Test: NHR-promoter luciferase screen, mLeptin promoter
# Assay type: cell-based, mouse
# Conditions: Table 7; mLeptin
# How it was run: as §1
Molecule,"Luc. act., normalized to lacZ","Normalized Luc. act., normalized to control"
B1,2.7,0.9
B2,1.5,0.5
B3,2.5,0.9

# Same assay, conditions: Table 6d; luciferase activity relative to control (control = 1.00)
row,Molecule,Results of assays of transcription factor (+/- ligand) with mLeptin
1,B1,0.91
2,B2,0.50
3,B3,0.87

# Test system: hCYP3A4 promoter
# Test: NHR-promoter luciferase screen, hCYP3A4 promoter
# Assay type: cell-based, human
# Conditions: CYP3A4 promoter; HR/ligand component
# How it was run: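 Luciferase reporter read-out after co-expression in CV-1 cells of V5H6-tagged receptor (alone or with RXR), the promoter construct and LacZ. Values are luciferase/LacZ relative to a control lacking NHR or ligand; orphan receptors tested ligand-free.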
Molecule,"Luc. act., normalized to lacZ","Normalized Luc. act., normalized to control"
B1,4.6,1.0
B2,4.5,1.0
B3,5.7,1.3

# Same assay, conditions: transcription factor +/- ligand; control = 1.00
row,Molecule,hCYP3A4 promoter reporter activity
1,B1,1.04
2,B2,1.02
3,B3,1.29

# Test system: mUCP2 promoter
# Test: NHR-promoter luciferase screen, mUCP2 promoter
# Assay type: cell-based, mouse
# Conditions: mUCP2 promoter reporter; co-transfected HR, with or without its ligand
# How it was run: as §1
row,Molecule,"Luc. act., normalized to lacZ"
1,B1,164.1
2,B2,139.9
3,B3,158.6

# Same assay, conditions: mUCP2 promoter reporter; co-transfected HR, with or without its ligand; relative to control
row,Molecule,"Normalized Luc. act., normalized to control"
1,B1,1.5
2,B2,1.3
3,B3,1.4

# Same assay, conditions: mUCP2 promoter-luciferase, CV-1 cells, NHR +/- ligand, control = 1.00
row,Molecule,"luciferase activity normalized to lacZ activity and to a control, mUCP2"
1,B1,1.49
2,B2,1.27
3,B3,1.44

# Test system: hIFNg promoter
# Test: NHR-promoter luciferase screen, hIFNg promoter
# Assay type: cell-based, human
# Conditions: IFNg promoter; HR component without or with ligand
# How it was run: as §1
Molecule,"Luc. act., normalized to lacZ","Normalized Luc. act., normalized to control"
B1,16.0,1.0
B2,18.4,1.2
B3,24.7,1.6

# Same assay, conditions: transcription factor +/- ligand; control = 1.00
row,Molecule,hIFNg promoter reporter activity
1,B1,1.01
2,B2,1.15
3,B3,1.55

# Test system: mCAR promoter
# Test: NHR-promoter luciferase screen, mCAR promoter
# Assay type: cell-based, mouse
# Conditions: mCAR promoter-luciferase, CV-1 cells, NHR +/- ligand, control = 1.00
# How it was run: as §1
row,Molecule,"luciferase activity normalized to lacZ activity and to a control, mCAR"
1,B1,0.95
2,B2,0.78
3,B3,0.96

# Same assay, conditions: mCAR promoter; HR/ligand component
Molecule,"Luc. act., normalized to lacZ","Normalized Luc. act., normalized to control"
B1,36.17,0.9
B2,29.68,0.8
B3,36.74,1.0
